Measured values taken from patent publication US20240307370A1, “SIGMA RECEPTOR LIGANDS FOR TREATING SARS-COV-2 INFECTION” (University of Florida Research Foundation, Incorporated, priority 2021, published 2024).

Tests used:
SARS-CoV-2 [1] = format: cell-based; conditions: 400 μg/ml, H23-hACE2, MOI 0.01, 48 hpi
SARS-CoV-2 [2] = format: cell-based; conditions: 400 μg/ml, 48 hours after infection, vs DMSO alone

B1: lactoferrin: host-iron sequestration protein; lactoferrin from human milk, MilliporeSigma (protein, UniProt P02788 20-710, looked up)
Lactotransferrin: GRRRSVQWCAVSQPEATKCFQWQRNMRKVRGPPVSCIKRDSPIQCIQAIAENRADAVTLDGGFIYEAGLAPYKLRPVAAEVYGTERQPRTHYYAVAVVKKGGSFQLNELQGLKSCHTGLRRTAGWNVPIGTLRPFLNWTGPPEPIEAAVARFFSASCVPGADKGQFPNLCRLCAGTGENKCAFSSQEPYFSYSGAFKCLRDGAGDVAFIRESTVFEDLSDEAERDEYELLCPDNTRKPVDKFKDCHLARVPSHAVVARSVNGKEDAIWNLLRQAQEKFGKDKSPKFQLFGSPSGQKDLLFKDSAIGFSRVPPRIDSGLYLGSGYFTAIQNLRKSEEEVAARRARVVWCAVGEQELRKCNQWSGLSEGSVTCSSASTTEDCIALVLKGEADAMSLDGGYVYTAGKCGLVPVLAENYKSQQSSDPDPNCVDRPVEGYLAVAVVRRSDTSLTWNSVKGKKSCHTAVDRTAGWNIPMGLLFNQTGSCKFDEYFSQSCAPGSDPRSNLCALCIGDEQGENKCVPNSNERYYGYTGAFRCLAENAGDVAFVKDVTVLQNTDGNNNEAWAKDLKLADFALLCLDGKRKPVTEARSCHLAMAPNHAVVSRMDKVERLKQVLLHQQAKFGRNGSDCPDKFCLFQSETKNLLFNDNTECLARLHGKTTYEKYLGPQYVAGITNLKKCSTSPLLEACEFLRK
effect on SARS-CoV-2 concentration (TCID50), words (SARS-CoV-2 [1]): ineffective | decrease of N-protein RNA copies (qPCR) (SARS-CoV-2 [2]): 28.0%
